Test results reported in patent US20260078171A1.

Columns and labels:
Assay in all cases: BLI (Octet), Fab, monovalent
[1] = biological target: SARS-CoV-2 Beta RBD (SARS-CoV-2)
[2] = biological target: SARS-CoV-2 Omicron BA.1 spike S1 subunit (SARS-CoV-2)
[3] = biological target: SARS-CoV-2 Omicron BA.2 RBD (SARS-CoV-2)

B1: VYD222 Fab (Fab, V domains shown)
VH: EVQLVESGGGLVKPGGSLRLSCAASGFTFGSYEMNWVRQAPGKGLEWVSSISEDGYSTYYPDSLKGRFTISRDSAKNSLYLQMNSLRADDTAVYYCARDFGGDTAWAGTGFTYWGQGTLVTVSS
VL: QSVLTQPPSVSGAPGQRITISCTGSSSNIGAGYDVHWYQQLPGTAPKLLIYGSSSRNYGVPDRFSGSKSGTSASLAITGLQAEDEADYYCQSYDSDLGVLYTFGTGTKVTVL
[1]
  Kd: 1.74 nM
[2]
  Kd: 18.1 nM
[3]
  Kd: 13.5 nM
